Experiment: soluble on expression in E. coli; label from the status in PepcDB or PDB records

| Sequence | soluble on expression in E. coli |
| --- | --- |
| MGSDKIHHHHHHGGLGDKSFNDGTWAGIKQAAEELGIEAKVIQSYEQSDYIPNLSKAAEEADLVFAVGFMMTNDLFKVAKQYPDTYFVGIDITPPEGQILPNVLTFTFKEQEAAFLVGYVAAAMTKTGMVGFVGGIPIPPVERFRYGYEAGIKTYSVLHKKNVKILRGYTQDFEDPKKGKDLAMSQFAEGADIVFHASGACGNGVIEAAREKFSALAGSDKLVDLIDYYTTNGKGFFAIGVDMDQDYMAPGAVLTSAMKRVDVASYYGVVWAYEGTFEGGHRVLGISEDAVGISPMKYTKGLVPNRVIAELLYLEKLMKEGTLKVPETQEELDAFEVPQIEFPF | not soluble |
| SLAGETINFCKGWKFHLGDAGKGASSSSYNDSQWRILNIPHDWSIEGTYKQFENGTDWQSGFLPAGISWYRKTFTIPSKWKNKKVQILFEGVYLNSEVWINGHWLGKRPNGYISFVYDLTPYLQEGKNQIAVKVDHSKALTGRWYTGSGIYRPVYLLVSNPTHIPYSGIHFRSKLQNKQSATYTLSIEIETQEKKPIKVKTYLQAPNGSIADTSEKIFVSSADSLCFLSGSIRKPLLWSPDSPNVYTLICQLTRDNKILDECRLPVGFRQLEFNPVSGFLLNGKSLKIKGVCDHHTVGAVGAAVPDDLLHYRLKLLKDMGCNAIRTSHNPFSPAFYNLCDTMGIMVLNEGLDGWNQPKAADDYGNYFDEWWQKDMTDFIKRDRNHPSIIMWSIGNEVTGATPEIQHNLVSLFHQLDPDRPVTQGGTDPTRGMKTDYQKKFNYLDIIGFNGNGEEIGELEHFHKNYPTLCAIATEVPHTYQTRGVYRSQTQWRRRDFPAPWEKGNINWEQFKHRVFPIPDLTEKECFPEESDYPYYQSSYDNASVRISARKSWQRTCSFPWLMGEFRWGSFDYLGEAEWPQRCGNFGIIDIAAIPKDAYFLYQSLWTDKPMVHLLPHWTHPGKEGKTIPVVIYTNCDAVELFINNVSLGSKPYTGEQLIWLVPYSPGKIEARGIKKGKIVATDCYQSAEAPHSVALASNKYSVKAGSDEVIRIEIDITDKNGIPCPYASNELSFHVSGPLRLLGVDNGNPTDMFPYQQPHCRCFRGKCVVLLQSDEEKGKGTLTVQGTKLVEKKLIIEVIEG | soluble |
| MGNASMTKTDIATRVHNHTWKLDPIVRSLIDTDFYKLLMLQMIWKLYPEVDATFSLINRTKTVRLAEEIDEMELREQLDHARTLRLSKKENIWLAGNTFYGRSQIFEPEFLSWLSSYQLPEYELFKRDGQYELNFHGRWMDTTLWEIPALSIINELRSRSAMRSLGYFTLDVLYARAKAKMWEKVERLRELPGLRISDFGTRRRHSFLWQRWCVEALKEGIGPAFTGTSNVLLAMDSDLEAVGTNAHELPMVVAALAQTNEELAAAPYQVLKDWNRLYGGNLLIVLPDAFGTAAFLRNAPEWVADWTGFRPDSAPPIEGGEKIIEWWRKMGRDPRTKMLIFSDGLDVDAIVDTYRHFEGRVRMSFGWGTNLTNDFAGCAPKTIASLKPISIVCKVSDANGRPAVKLSDNPQKATGDPAEVERYLKFFGEEDHKEQKVLVLEHHHHHH | not soluble |
| MINRVPTNIITGFLGVGKTTAILHLLATKPAHEKWAVLVNEFGEIGIDGAIMSEQGAMIKEVPGGCLCCTAGVPMSVGINALLRQKPDRLIIEPTGLGHPKQVVATLISEQYQPYVDLKATIALMDPRHLSMDKYRSNQNFNDQLASADIVLGNKVDQCSSSDIDAFNDWVTDQTPAKTFSQLIKQGQFPIELLDMPRLVGHASTHIDSHHHHHAADEPQFQLAPQQPFLRKENRGQGYFSCGWLFGAEYQFNFDLLFQLLNDLTAERVKGVLNTDRGCYAFNVANGVVSVTEMSLDGFESRLEVIDSQLMPWSELESILLKIAGIPQALEHHHHHH | not soluble |
| MCEIFIRANQRSYSVQARSLRLHGVATSVRLEQLFWDVLEEIAARDGMRVTQLIERLYDELVQYRGEAANFTSFLRVCCLRYQVLQAEGRIPADATVPIRSLDAQAVLRGLPANLYDSRPLG | soluble |
| MGSDKIHHHHHHMINIFKPRTLTFYLVKSMDVLELLSELVSFNTVNDPNKGIKPSKECPRFIKDQLDSWDIESEIIERSGYYAVYGEIGDGTPRLLFMAHFDVVPVNLEEWETDPFELTIKENKAYGRGSADDKGNVAAVMLALKELSKEEKLNGRVIFAFTGDEEIGGAMAMHIAEKLSKEGKVPKYMINADGIGMKPIIRRRKGFGVEIKVYPRKVKVKGRVREIEFEPKTPVVETRHAAYFLPGVDTHPMVALSHFLRNSNAVAISLDGAFIKGNVIPGKVKLKYVEPGEGEEVEGDLSLTALLKAIVPIVRAPIKAEKYSDYGVSITPNVYSFDGSHVLKVDVRAMSYSKDDIEKTLREVLNFNLPEAELIIKENEKAGYLFTSPDDELVRVTLRILKELGEDVEPIEGPGASDSRYFTPLGVKAIDIGPRGGNIHGPNEYVEVDSLRKMPEIYRRIALSLLL | not soluble |

— the DeepSol protein solubility set
